As a reminder, the stoichiometry N is the number of molecules, sites or subunits per partner or assembly.

Our source for the stoichiometry N values is article PMC4468108.

Test [1] has as its target DsRmCh (UniProt Q9U6Y8). The experiment in a line: AUC; sedimentation velocity, 40,000 RPM overnight, PBS pH 7.4, sample diluted to A575 of 0.5, c(m) distribution in Sedfit.
Test [2] deals with DsRmCh (UniProt Q9U6Y8). The experiment in a line: SEC; Superdex 75 10/300, 100 μl of purified protein, absorbance at 575 nm. (Size exclusion chromatography separates by hydrodynamic size, large species first.)
Another test addresses DsRmChΔ5 (UniProt Q9U6Y8). The experiment in a line: AUC; sedimentation velocity, 40,000 RPM overnight, PBS pH 7.4, sample diluted to A575 of 0.5, c(m) distribution in Sedfit.

Regarding DsRmCh (from UniProt Q9U6Y8 1-225), the stoichiometry N with DsRmCh [1] and with DsRmCh [2] was 4 throughout.

Take DsRmChΔ5 (from UniProt Q9U6Y8 1-220): in the test with DsRmChΔ5, the stoichiometry N came out at 4.
